Reference: article PMC9270183 (The Journal of Experimental Medicine, 2022)
Residue numbers refer to the chain shown, from its start.

B1: V042 (antibody, V domains shown)
VH: QLQLQESGPGLVKPSETLSLTCTVSGGSISSSTNYWGWIRQPPGKGLEWIGSIDYSGSTYYNPSLKSRVTMSVDTSKNQFSLKLSSVTATDTAMYYCARHVIDDSRGYYPAALDHWSQGTLVTVSS
VL: EIVLTQSPATLSLSPGERATLSCRASQSVNNYLAWYQQKPGQAPRLLIYDASNRATGVPARFSGSGSGTDFTLTISSLEPEDFAVYFCQQRSNWPPMYTFGQGTKLEIK
notes: IgG; donor BRA15; source: recombinant monoclonal IgG, produced and purified as previously described
B2: V055 (antibody, V domains shown)
VH: QVQLVQSGAEVKKPGSSVKVSCKASGGTFSSYIINWVRQAPGQGLEWMGRIIPILGIANYAQKFHGRVTITADESTSTAYMELSSLRSEDTAVYYCARGGPDPSDSNYAALLYYYYMDVWGKGTTVTVSS
VL: QSVLTQPPSVSAAPGQKVTISCSGSSSNIGSYYVSWYQKLPGTAPKLLIHENNKRPSGIPDRISGSKSGTSATLGITGLQTGDEADYYCGTWDSSLSDVVFGGGTKLTVL
notes: as for B1
B3: V053 (antibody, V domains shown)
VH: QVQLVQSGAEVKKPGASVKVSCKASGYTFTSYYMHWVRQAPGQGLEWMGIINPSAGSTTYAQKFQGRVTMTSDTSTSTVYMELSSLKSEDTAVYYCARDFVLVPASYGMDVWGQGTTVTVSS
VL: QSVLTQPASVSGSPGQSITISCTGTSSDVGSYNLVSWFQQHPGKAPKLMIYQVSKRPSGASNRFSGSKSGNTASLTISGLQAEDEADYYCCSYAGSSTVWVFGGGTKLTVL
notes: as for B1
B4: V056 (antibody, V domains shown)
VH: QVQLVESGGGVVQPGRSLRLSCAASGFPFSNYGMHWVRQAPGKGLEWVAVISYDGSNKYYADSVKGRFTISRDNSKNTLYLQMNSLRAEDTALYYCAKDSRPLPAAMSTYYYYGVDVWGQGTTVTVSS
VL: not shown
notes: as for B1
B5: V060 (antibody, V domains shown)
VH: B4 VH with Q39R, S56L, S85R, L93V, L103V, A105G, V115M
VL: not shown
notes: as for B1
B6: V043 (antibody, V domains shown)
VH: QLQLQESGPGLVKPSETLSLTCTVSGGSISSNNYYWGWIRQPPGKGLECIGTIYYSGNTYYNPSLKSRVTISVDTSKNQFSLKLGSVTAADTAVYYCARQQWLRDAFHIWGQGTMVTVSS
VL: NFMLTQPHSVSESPGKTVTISCTGSSGSIASNYVQWYQQRPGSAPTIVIYEDNQRPSGVPDRFSGSIDSSSNSASLTISGLKTEDEADYYCQSYDSNIHVVFGGGTKLTVL
notes: as for B1
B7: V003 (antibody, V domains shown)
VH: EVQLVQSGAEVKKPGESLKISCLGSGYSFTSYWIGWVRQMPGKGLEWMGIIFPADSDTRYSPSFQGQVIISADKSISTAYLQWSSLKASDTAMYYCARLREFGDYYYYGMDVWGQGTTVTVSS
VL: DIQLTQSPSSLSASVGDRVTITCRASQGISSYLAWYQQKPGKAPKLLIYAASTLQSGVPSRFSGSGSGTDFTLTISSLQPEDFATYYCQQLNSYPDFGQGTKLEIK
notes: IgG; donor BRA13; source: recombinant monoclonal IgG, produced and purified as previously described
B8: V004 (antibody, V domains shown)
VH: QVQLQESGPGLVKPSQTLSLTCTVSGGSISSGSYYWSWIRQPAGKGLEWIGRIYTSGSTNYNPSLKSRVTISVDTSKNQFSLKLSSVTAADTAVYYCARDTTDDYYVIWGQGTLVTVSS
VL: DIQMTQSPSTLSASVGDRVTITCRASQSIRSWLAWYQQKPGKAPKLLIYDASSLESGVPSRFSGSGSGTEFTLTISSLQPDDFATYYCQQYNTHFRTFGQGTKVEIK
notes: as for B7
B9: V051 (antibody, V domains shown)
VH: QVQLVESGGGVVQPGRSLRLSCEASGFTFSTYAMHWVRQAPGKGLEWVAVISYDGNNKYYADSVKGRLTVSRDNSKNTLYLQMNSLRAEDTAEYYCARDDGGYCSSLSCPMDVWGQGTTVTVSS
VL: SYELTQPPSVSVAPGKTARITCGGNSIGSKSVHWYQQRPGQAPVLVIYYDSDRPSGIPERFSGSNSGNTATLTISRVEAGDEADYYCQVWDSTLVFGGGTKLTVL
notes: as for B1
B10: V044 (antibody, V domains shown)
VH: QVQLVQSGAEVKKPGASVKVSCKASGYTFTSYDINWVRQATGQGLEWMGWMNPNSGYAGYTQKFQGRITMTRNTSISTAYMELSSLRSEDTAVYFCARISSPTRLDPWGQGTLVTVSS
VL: NFMLTQPHSVSESPGKTVTISCSRSRGSIASSFVQWYQQRPGSSPTTVIYDDNQRPSGVPDRFSGSIDSSSNSASLTISGLKTEDEADYYCQSYDSISWVFGGGTKLTVL
notes: as for B1
B11: V038 (antibody, V domains shown)
VH: QVQLVQSGAEVKKPGASVKVSCKASGYTFTGYYVHWVRQAPGQGLEWMGWINPNSGGTNFAQRFQGRVTMTRDTSISTAYMELSRLRSDDTAVYYCARGITVYGVAPDAFDIWGQGTMVTVSS
VL: DIQMTQSPSSLSASVGDRVTITCQASQDISNYLNWYQQKPGKAPKVLIYDASNLEPGVPSRFSGSGSGTDFTFTISSLQPEDIATYYCQQYDNLITFGQGTRLEIK
notes: as for B1
B12: V057 (antibody, V domains shown)
VH: EVQLVESGGGLVQPGRSLRLSCAASGFTFGDYAMHWVRQAPGKGLEWVSGISWNSGIIGQADSVKGRFTISRDNAKNSLYLQMNSLRVEDTALYYCAKGGGESVEVPADEKLDYWGQGTLVTVSS
VL: QSVLTQPPSVSGAPGQRVTISCTGSSSNIGAGYDVHWYQQLPGTAPKLLIYGNNNRPSGVPDRFSGSKSGTSASLAITGLQAEDEADYYCQSYDSSLSGSWVFGGGTKLTVL
notes: as for B1
B13: V054 (antibody, V domains shown)
VH: QVQLVESGGGVVQPGRSLRLSCAASGFPFSSFGMHWVRQAPGKGLEWVAVISSDGSNKYYADSVKGRFTISRDNSKNTLYLQMNSLRAEDTAVYYCAKEFTYVVVTALWGTENFDIWGQGTMVTVSS
VL: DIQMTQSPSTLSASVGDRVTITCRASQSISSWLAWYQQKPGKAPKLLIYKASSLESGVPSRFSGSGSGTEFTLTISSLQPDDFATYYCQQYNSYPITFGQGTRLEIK
notes: as for B1
B14: V007 (antibody, V domains shown)
VH: QVQLVQSGAEVKKPGSSVKVSCKASGDTFSTYTISWVRQAPGQGLEWMGRIIPILGVGNYAQKFQGRVTITADKSTSTAYMELSSLRSEDTAVYYCAHTTPPGDAFDIWGQGTMVTVSS
VL: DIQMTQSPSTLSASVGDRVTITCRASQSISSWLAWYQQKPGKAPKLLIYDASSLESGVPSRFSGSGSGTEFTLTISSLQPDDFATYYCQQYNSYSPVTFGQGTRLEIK
notes: as for B7
B15: V061 (antibody, V domains shown)
VH: QVQLVQSGAEVKKPGTSVKVSCKASGYTFKNYGISWVRQAPGQGLEWMGWISAHNGNTNYAQRVQGRVTMTTDTSTSTAYMELRSLRSEDTAVYYCGRESGVASHPGDLDYWGQGTLVTVSS
VL: SYELTQPPSVSVSPGQTARITCSGDALPRQYAYWYQQKPGQAPVLLIYKDSERPSGIPERFSGSSSGTTVTLTISGVQAEDEADYYCQSADSSVVFGGGAKLTVL
notes: as for B1
B16: V046 (antibody, V domains shown)
VH: EVQLVESGGGLVQPGRSLRLSCAASGFTFEDYAMHWVRQAPGKGLEWVSGVSWNSGTIGYADSVKGRFIISRDNAKNSLYLQMNSLRAEDTALYYCANLGPTYYDFSRPTPMDVWGKGTTVTVSS
VL: QSALTQPASVSGSPGQSITISCTGTSSDVGGYNYVSWYQQHPGKAPKLIIYDVSNRPSGVSNRFSGSKSGNTASLTISGLQAEDEADYYCSSYTSSSTWVFGGGTKLTVL
notes: as for B1
B17: V049 (antibody, V domains shown)
VH: QVQLVESGGGVVQPGRSLRLSCAASRFPFSNYGMHWVRQAPGKGLEWVAVISFDGNNKYYGDSVKGRLTISRDNSKNTLYLQVKSLRPEDTAVYYCAKDISTGLSLALFRSPDGEGMDVWGQGTTVTVSS
VL: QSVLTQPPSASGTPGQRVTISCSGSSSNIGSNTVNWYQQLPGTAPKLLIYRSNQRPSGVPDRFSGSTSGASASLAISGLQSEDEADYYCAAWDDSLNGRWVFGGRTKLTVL
notes: as for B1
B18: V032 (antibody, V domains shown)
VH: QVQLVESGGGVVQPGRSLRLSCAASGFTFSSYGMHWVRQAPGKGLEWVAVISYDGSNKYYADSVKGRFTISRDNSKNTLYLQMNSLRAEDTAVYYCAKVSGPYCSSTSCYTGYWDYWGQGTLVTVSS
VL: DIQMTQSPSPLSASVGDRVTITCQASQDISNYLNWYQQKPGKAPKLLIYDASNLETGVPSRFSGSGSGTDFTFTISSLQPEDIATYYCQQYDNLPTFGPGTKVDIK
notes: IgG; donor BRA14; source: recombinant monoclonal IgG, produced and purified as previously described
B19: V033 (antibody, V domains shown)
VH: QVQLVQSGAEVKKPGASVKVSCKASGYTFTSYGISWVRQAPGQGLEWMGWISAYNGNTNYAQKLQGRVTMTTDTSTSTAYMELRSLRSDDTAVYYCARGRFCSSTSCYRAAPNYYYYYMDVWGKGTTVTVSS
VL: NFMLTQPHSVSESPGKTVTISCTRSSGSIASNYVQWYQQRPGSAPTTVIYEDNQRPSGVPDRFSGSIDSSSNSASLTISGLKTEDEADYYCQSYDSSNPYWVFGGGTKLTVL
notes: as for B18
B20: V039 (antibody, V domains shown)
VH: QVQLQESGPGLVKPSQTLSLTCTVSGGSISSGSYYWSWIRQPAGKGLEWIGRIYTSGSTNYNPSLKSRVTISVDTSKNQFSLKLSSVTAADTAVYYCARADYSDYDNYYFDYWGQGTLVTVSS
VL: B19 VL with T19A, Q35H, A44S, E51D, P99H, Y100N
notes: as for B1
B21: V050 (antibody, V domains shown)
VH: EVQLVESGGGLVKPGGSLRLSCAASGFSFSNAWMSWVRQAPGKGLEWVGRIKSKTDGGTTDYAAPVKGRFTISRDDSQNTLYLQMNSLKTEDTAVYYCITDRFRVHIRGYYGQGTLVTVSS
VL: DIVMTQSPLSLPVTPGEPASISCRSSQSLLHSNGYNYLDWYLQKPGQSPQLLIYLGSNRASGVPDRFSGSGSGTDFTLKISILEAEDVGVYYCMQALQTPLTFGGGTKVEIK
notes: as for B1
B22: V045 (antibody, V domains shown)
VH: QVQLVQSGAEVKKPGASVKVSCKASTYTFTSYYIHWVRQAPGQGLEWMGIINPSGGSTSYAQNFQGRVTMTRDTSTSTVYMELSSLRSEDTAVYYCARGVLIPAAGGDFDYWGQGTLVTVSS
VL: QSALTQPRSVSGSPGQSVTISCTGTSSDVGGYKYVSWYQQHPGKAPKLMIYDVSKRPSGVPDRFSGSKSGNTASLTISGLQAEDEADYYCCSYAGSYSWVFGGGTKLTVL
notes: as for B1
B23: V048 (antibody, V domains shown)
VH: QVQLVQSGAEVKKPGASVKVSCKASGYTFTSYVISWVRQAPGQGLEWMGWISAYNGNTNYAQKLQGRVTMTTDTSTSTAYMELRSLRSDDTAVYYCARDVAGITMIVEEVIDAFDIWGQGTMVTVSS
VL: SYELTQPSSVSVSPGQTARITCSGDVLAKKYARWFQQKPGQAPVLVIYKDSERPSGIPERFSGSSSGTTVTLTISGAQVEDEADYYCFSAPDNNRVFGGGTKLTVL
notes: as for B1
B24: V037 (antibody, V domains shown)
VH: EVQLVESGGGLVQPGGSLRLSCAASEVIVSSNYMSWVRQAPGKGLEWVSVLYSGGSTFYADSVKGRFTISRDNSKNTLYLQMNSLRAEDTAVYYCARDLGPMGAFDIWGQGTMVTVSS
VL: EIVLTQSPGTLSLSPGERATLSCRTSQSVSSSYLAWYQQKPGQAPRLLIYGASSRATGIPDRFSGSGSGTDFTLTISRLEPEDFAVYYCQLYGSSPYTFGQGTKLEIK
notes: as for B1

These binders were tested against T1, 417N/484K/501Y RBD mutant (SARS-CoV-2, Wuhan-Hu-1 RBD backbone …, 417N | 484K | 501Y) (assay: BLI). Conditions: both partners purified.
T1 construct: also called RBD KEN

| Binder | Kd |
| --- | --- |
| B1 | 23.3 nM |
| B2 | 1.99 nM |
| B3 | 2.49 nM |
| B4 | 7.58 nM |
| B5 | 4.79 nM |
| B6 | 4.02 nM |
| B7 | 139 nM |
| B8 | 2.92 nM |
| B9 | 7.05 nM |
| B10 | 3.66 nM |
| B11 | 2.37 nM |
| B12 | 22 nM |
| B13 | 15.6 nM |
| B14 | 5.78 nM |
| B15 | 10.3 nM |
| B16 | 2.85 nM |
| B17 | 20.6 nM |
| B18 | 27.3 nM |
| B19 | 10.7 nM |
| B20 | 0.542 nM |
| B21 | 66.7 nM |
| B22 | 2.79 nM |
| B23 | 6.26 nM |
| B24 | 0.241 nM |
